The results in this text go back to IntAct's records for PubMed 20453860.

B1: Vacuolar protein sorting-associated protein 33 (Saccharomyces cerevisiae), P20795 (parent)
chain: MNRFWNTKKFSLTNADGLCATLNEISQNDEVLVVQPSVLPVLNSLLTFQDLTQSTPVRKITLLDDQLSDDLPSALGSVPQMDLIFLIDVRTSLRLPPQLLDAAQKHNLSSLHIIYCRWKPSFQNTLEDTEQWQKDGFDLNSKKTHFPNVIESQLKELSNEYTLYPWDLLPFPQIDENVLLTHSLYNMENVNMYYPNLRSLQSATESILVDDMVNSLQSLIFETNSIITNVVSIGNLSKRCSHLLKKRIDEHQTENDLFIKGTLYGERTNCGLEMDLIILERNTDPITPLLTQLTYAGILDDLYEFNSGIKIKEKDMNFNYKEDKIWNDLKFLNFGSIGPQLNKLAKELQTQYDTRHKAESVHEIKEFVDSLGSLQQRQAFLKNHTTLSSDVLKVVETEEYGSFNKILELELEILMGNTLNNDIEDIILELQYQYEVDQKKILRLICLLSLCKNSLREKDYEYLRTFMIDSWGIEKCFQLESLAELGFFTSKTGKTDLHITTSKSTRLQKEYRYISQWFNTVPIEDEHAADKITNENDDFSEATFAYSGVVPLTMRLVQMLYDRSILFHNYSSQQPFILSREPRVSQTEDLIEQLYGDSHAIEESIWVPGTITKKINASIKSNNRRSIDGSNGTFHAAEDIALVVFLGGVTMGEIAIMKHLQKILGKKGINKRFIIIADGLINGTRIMNSIS
partner: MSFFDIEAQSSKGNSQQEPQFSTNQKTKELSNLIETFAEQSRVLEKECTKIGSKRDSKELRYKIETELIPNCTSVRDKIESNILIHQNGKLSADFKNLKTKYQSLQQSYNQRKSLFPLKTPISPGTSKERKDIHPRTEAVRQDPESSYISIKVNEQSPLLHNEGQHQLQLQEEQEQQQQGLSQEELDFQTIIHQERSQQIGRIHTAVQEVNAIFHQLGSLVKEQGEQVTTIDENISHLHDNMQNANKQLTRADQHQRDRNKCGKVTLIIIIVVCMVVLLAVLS

In the experiment the parent is B1. Conditions: with vam3_yeast VAM3, Q12241.
In the case of D88K, the “effect of a mutation on the interaction” value was “decreasing interaction”.

For L184P, the “effect of a mutation on the interaction” value is reported as “decreasing interaction”.
